Experimental data from US8628762B2, “T-helper cell type 17 lineage-specific adjuvants, compositions and methods” (Icahn School of Medicine at Mount Sinai, priority 2008, dated 2014).

System: Naïve CD4 T-cells
Test: In vitro T-cell differentiation in DC conditioned medium, IL-17/IL-10 in supernatants by ELISA
Assay type: cell-based, C57BL/6J mice
Conditions: IL-6 supplemented to DCCM-apoptotic B-cells
Procedure: Bone marrow (BM)-derived GM-CSF DC cultures were grown in RPMI supplemented with GM-CSF and 5% foetal bovine serum (FBS), plus 100 μg/mL penicillin, 100 μg/mL streptomycin, 2 mM L-glutamine, 10 mM HEPES, 1 nM sodium pyruvate, 1×MEM nonessential amino acids, and 2.5 μM β-mercaptoethanol (all from Sigma-Aldrich, St. Louis, Mo.), as previously dcseribed^1. Semi-adherent cells were harvested on ice on day 5 and re-plated immediately in fresh GM-CSF medium at 1×10^6 cells/well in 24-well tissue culture-treated plates. Soluble or phagocytic stimuli were added right away to the plates in the same medium and the cells were centrifuged for 2 min at 2000 rpm. Supernatants (conditioned medium, CM) were collected after 18 hours. LPS (from E. coli, serotype 055:B5, L-2880) was purchased from Sigma-Aldrich. BMDC were treated with various doses of soluble LPS or 2:1 A20 LPS blasts:DC to titrate the LPS such that levels of IL-6 produced by DC in response to these stimuli was similar. Soluble LPS was used at a final concentration of 1 ng/mL. The A20 B-cell line was obtained from the ATCC (TIB-208). A20 LPS blasts were prepared by culturing A20 cells at 1×10^6 cells/mL, 3 mL/well in 6-well tissue culture plates for four days in RPMI medium supplemented with 10% FBS, with 100 μg/mL penicillin, 100 μg/mL streptomycin, 2 mM L-glutamine, 10 mM HEPES, 1 nM sodium pyruvate, plus 25 μg/mL LPS, as previously described in Blander, J. M. and Medzhitov, R. (2004) Science 304(5673):1014. […] Cells were centrifuged, counted, and apoptosis was induced by UV irradiation at 350 mJ. […]
Naïve CD4 T cells were isolated first by sorting with MACS® CD4^+ beads (Miltenyi Biotech, Auburn, Calif.) according to manufacturer's instructions and then by fluorescence activated cell sorting (FACS) using a MoFlo™, Vantage, or Influx™ cell sorter for CD25^−CD44^lowCD62L^high cells using allophycocyanin (APC)-conjugated anti-CD25 monoclonal antibody (mAb) (clone PC61.5), FITC-conjugated CD62L mAb (clone MEL-14), and PE-Cy5-conjugated CD44 mAb (clone IM7) (all from eBioscience™, San Diego, Calif.). […]

B1: IL-6: cytokine interleukin-6 (Peprotech), 50 ng/mL (protein, UniProt P08505 25-211, looked up)
Interleukin-6: FPTSQVRRGDFTEDTTPNRPVYTTSQVGGLITHVLWEIVEMRKELCNGNSDCMNNDDALAENNLKLPEIQRNDGCYQTGYNQEICLLKISSGLLEYHSYLEYMKNNLKDNKKDKARVLQRDTETLIHIFNQEVKDLHKIVLPTPISNALLTDKLESQKEWLRTKTIQFILKSLEEFLKVTLRSTRQT
B1 was tested, and the IL-17 production was “restored IL-17 production”.
